The data set can be described thus: yeast display, Sf9 membrane polyspecificity reagent, FACS + sequencing; frameworks hold sequencing errors. In a few lines:
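Using colony PCR, genes from sorted yeast display clones were amplified, then sequenced on MiSeq at 2 × 250 and filtered by CDR length. The clones had been stained with 10% biotinylated, detergent-solubilized Sf9 membrane reagent for 1 hour at 4 °C and sorted by FACS into low and high (top ~1%) gates on anti-HA and streptavidin fluorescence. Polyreactivity labels come from the gate of origin.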
Consider “QVQLVESGGGLVQAGGSLRLSCAASGRIFYRYAMGWYRQAPGKERELVAAISSGSSTNYADSVKGRFTISRDNAKNTVYLQMNSLKPEDTAVYYCNAERYGKSWRYCYWGQGTQVTVSS”, for which the “polyreactivity (PSR sort gate)” value is “high polyreactivity”.
As for “QVQLVESGGGLVQAGGSLRLSCAASGRIFYRYAMGWYRQAPGKERELVASISGSGGRTYYADSVKGRFTISRDNAKNTVDLQMNSLKPEDTAVYYCAARIRPSYDWGQGTQVTVSS”, the “polyreactivity (PSR sort gate)” value was “high polyreactivity”.
The entry for “QVQLVESGGGLVQAGGSLRLSCAASGRIFYRYAMGWYRQAPGKERELVATISSGGSTNYADSVKGRFTISRDNAKNTVYLQMNSLKPEDTAVYYCARQSLRYSYVSRDYWGQGTQVTVSS” is “low polyreactivity”; for “QVQLVESGGGLVQAGGSLRLSCAASGRIFYRYAMGWYRQAPGKERELVATMSWSGGSTYYADSVKGRFTISRDNAKNTVYVQMNSLKPEDTAVYYCNAAYGYVSRVYYLIEHDYWGQGTQVTVSS” it is “high polyreactivity”; for “QVQLVESGGGLVQAGGSLRLSCAASGRIFYRYVMGWYRQAPGKERELVAAITSSGGSTYYADSVKGRFTISRDNAKNTVYLQMNSLKPEDTAVYYCAADRYTRYRYNYWGQGTQVTVSS” it is “high polyreactivity”.
As to “QVQLVESGGGLVQAGGSLRLSCAASGRIFYSNAMGWYRQAHGKERELVAAITGSGGRTHYADSVKGRFTISRDNAKNSVYLQMNSLKPEDTAVYYCAKDGYFPEFDYWGQGTQVTVSS”, the “polyreactivity (PSR sort gate)” value was “high polyreactivity”.
As to “QVQLVESGGGLVQAGGSLRLSCAASGRIFYSNAMGWYRQAPGKERELVAAITWRGGSTYYADSVKGRFTISRDNAKNTVYLQMNSLKPEDTAVYYCATDGYDDTHYYYWGQGTQVTVSS”, the “polyreactivity (PSR sort gate)” value is reported as “low polyreactivity”.
The entry for “QVQLVESGGGLVQAGGSLRLSCAASGRIFYSNTMGWYRQAPGKERELVAGITSSGGSTYYADSVKGRFTISRDNAKYTVYLQMNSLKPEDTAVYYCATSSVAEAKYVTEGTFDYWGQGTQVTVSS” is “low polyreactivity”; for “QVQLVESGGGLVQAGGSLRLSCAASGRIFYSYAMGGYRQAPGKERELVATITNGGSTNYADSVKGRFTISRDNAKNTVYLQMNSLKPEDPAVYYCATDQFTRSVDFDYWGQGTQVTVSS” it is “high polyreactivity”; for “QVQLVESGGGLVQAGGSLRLSCAASGRIFYSYAMGWYRQAPGNERELVAAIPRSGGRTYYADSVKGRFTISRDKAKNTGYLQMNCLKPEDTAVYDCATVWPSISPYPGYNYWGQGTQVTVSS” it is “high polyreactivity”.
With “QVQLVESGGGLVQAGGSLRLSCAASGRIFYTNAMGWYRQAPGKERELVAAISWRGGSTYYADSVKGRFTISRDNAKNTVYFQMNSLKPEDTAVYYCNRYYLSYNYDYWGQGTQVTVSS”, the “polyreactivity (PSR sort gate)” value is recorded as “high polyreactivity”.
For “QVQLVESGGGLVQAGGSLRLSCAASGRIFYTYAMGWYRQAPGKERELVAAITSSGGRTYYADSVKGRFTISRDNAKNTVYLQMNSLKPEVTAVYYCATRYPWGWAMNYWGQGTQVTVSS”, the “polyreactivity (PSR sort gate)” value is on record as “high polyreactivity”.
The entry for “QVQLVESGGGLVQAGGSLRLSCAASGRIFYTYAMGWYRQAPGKERELVAGISRGGRTYYADSVKGRFTISRDNAKNSVYLQMNSLKPEDTAVYYCAARLQYGIQYRYDYWGQGTQVTVSS” is “high polyreactivity”; for “QVQLVESGGGLVQAGGSLRLSCAASGRIFYTYAMGWYRQAPGKERELVSSITWSDGNTYYADSVKGRFTISRDNAKNTDYLQMNSLKPEDTAVYYCAAGDSFYVYLWPTYDYWGQGTQVTVSS” it is “low polyreactivity”; for “QVQLVESGGGLVQAGGSLRLSCAASGRIFYVYAMGWSRQAPGKERELVAAITSGGRTYYADSVKGRFTISRDNAKNTVYLQMNSLKPEDTAVYYCAARASSYNYWGQGTQVTVSS” it is “high polyreactivity”.
Turning to “QVQLVESGGGLVQAGGSLRLSCAASGRIFYVYAMGWYRQAPRKERELVAAITSGGSTYYADSVKGRFTISRDNAKNTVYLQMNSLKPEDTAVYYCAAYNRGRFRPYRFEYWGQGTQVTVSS”, the “polyreactivity (PSR sort gate)” value is recorded as “high polyreactivity”.
With “QVQLVESGGGLVQAGGSLRLSCAASGRIFYWYAMGWYRQAPGKEREFVAAITSSGGSTYYADSVKGRFTISRDNAKNTVDLQMNSLKPEDTAVYYCAARNPYYTSRGYWGQGTQVTVSS”, the “polyreactivity (PSR sort gate)” value is recorded as “high polyreactivity”.
For the sequence “QVQLVESGGGLVQAGGSLRLSCAASGRIFYWYAMGWYRQAPGKERELVAAISRSGSRTYYPDSVKGRFTISRDNAKNTVYLQMNSLKPEDTAVYYCAAVSGTGTAMDYWGQGTQVTVSS”, the “polyreactivity (PSR sort gate)” value was “high polyreactivity”.
Take “QVQLVESGGGLVQAGGSLRLSCAASGRIFYYNALGWYRPAPGKERELVAAISWSGGSTYYADSVKGRFTISRDNATNTVYLQMNSLKPEDTAVYYCAVDVYGYTPRPTREPLIYEYWGQGTQVTVSS”: the “polyreactivity (PSR sort gate)” value is recorded as “low polyreactivity”.
As to “QVQLVESGGGLVQAGGSLRLSCAASGRIFYYNTMGWYRQAPGKERELVAAISRSGGSTYYADSVKGRFTISRDNAKNTVYLQMNSLKPEDTAVYYCAAVTHRYGNSEFDYWGLGTQVTVSS”, the “polyreactivity (PSR sort gate)” value is “high polyreactivity”.
Consider “QVQLVESGGGLVQAGGSLRLSCAASGRIFYYNTMGWYRQAPGKERELVARITQRGGRTYYADSVKGRFTISRDYAKNTVYLQMNSLKPVDTAVYYFNAKVRGTNTAGVDYWGQGTQVTVSS”, for which the “polyreactivity (PSR sort gate)” value is on record as “high polyreactivity”.
“QVQLVESGGGLVQAGGSLRLSCAASGRIFYYTMVWYRQAPGKERELVAAISWSGGSTYYADSVKGRFTISRDNAKNTVYLQMNSLKPEDTAVYYCATRSRRLYHYDYWGQGTQVTVSS”: the “polyreactivity (PSR sort gate)” value is given as “high polyreactivity”.
Regarding “QVQLVESGGGLVQAGGSLRLSCAASGRIFYYYAMGWSRQAPGKERELVADITWSGGSTYYADSVKVRFTISRDNAKNTVYLQMNSLKTEDTAVYYCNADRLRSTHDYWGQGTQVTVSS”, the “polyreactivity (PSR sort gate)” value is given as “high polyreactivity”.
The entry for “QVQLVESGGGLVQAGGSLRLSCAASGRIFYYYAMGWYRQAPGKEREFVAAISGSGGTTYYADSVKGRFTISLDNAKNTVYLQMNSLKPEDTAVYYCNAKAVRGRYVWFDYWGQGTQVTVSS” is “high polyreactivity”.
With “QVQLVESGGGLVQAGGSLRLSCAASGRIFYYYAMGWYRQAPGKERELVAAINRSGGSTYYADSVKGRFTISRDNAKNTVYLQKNSLKPEDTAVYYCASYDYWGQGSQVTVSS” the entry was “high polyreactivity”; with “QVQLVESGGGLVQAGGSLRLSCAASGRIFYYYAMGWYRQAPGKERELVAAISGGGGSTYYADSVKGRFTISRDNAKNTVYLQMNSLKPEDTAVYYCAAEGAKDYTVSYDYWGQGTQVTVSS”, “high polyreactivity”; with “QVQLVESGGGLVQAGGSLRLSCAASGRIFYYYAMGWYRQAPGKERELVAAISQRGGRTYYADSVKGRFTISRDIAKNTVYLQMNSLIPEDTAVYYCNAYPVYGRYTHYGYGHWGQGTKVTVSS”, “high polyreactivity”.
Take “QVQLVESGGGLVQAGGSLRLSCAASGRIFYYYAMGWYRQAPGKERELVAGISSGSSTNYADSVKGRFTISRDNAKNTVYLQMNSLKPEDTAVYYCAAYPYFSVAANDDYWGQGTQVTVSS”: the “polyreactivity (PSR sort gate)” value is “low polyreactivity”.
With “QVQLVESGGGLVQAGGSLRLSCAASGRIFYYYAMGWYRQAPGKERELVASINSVGTTTYADSVKGRVTISRDNAKNTVYLQMNSLKPEDTAVYYCARDTGSIYYDGYEYDYWGQGTQVTVSS” the entry was “low polyreactivity”.
In the case of “QVQLVESGGGLVQAGGSLRLSCAASGRIFYYYAMGWYRQAPGKERELVATITTSGKTYYADSVKGRFTISRDNAKNTVYLQMNSLKPEDTAVYYCNAGWDLVYGYYPRRKNFDYWGQGTKVTVSS”, the “polyreactivity (PSR sort gate)” value was “high polyreactivity”.
The entry for “QVQLVESGGGLVQAGGSLRLSCAASGRIFYYYAMGWYRQAPRKERELVAAISWSDDSTYYADSVKGRFTISRDNAKNTVYLQMNSLKPEDTAVYYCAADSIHYQFDYWGQGTQVTVSS” is “low polyreactivity”.
On to “QVQLVESGGGLVQAGGSLRLSCAASGRIFYYYAMGWYRQAPVKERELVAAISQRGGRTYYADSVKVRFTISRDNAKNTVYLQMNSLKPEDTAVYYCNAYPVYGRYTHYGYGHWGQGTQVTVSS”, for which the “polyreactivity (PSR sort gate)” value is “high polyreactivity”.
With “QVQLVESGGGLVQAGGSLRLSCAASGRIFYYYAMVWYRQAPGKERELVAAITRRGGSTYYADSVKGRFTISRDNAMNTVYLLMNSLKPEDTAVYYCAKPVRTGWLDGDYWGQGTQVTVSS”, the “polyreactivity (PSR sort gate)” value is listed as “low polyreactivity”.
In the case of “QVQLVESGGGLVQAGGSLRLSCAASGRIFYYYGMGWYRQAPGKEREFVAAISLGGARTYYADSVKGRFTISRDNAKNTVYLQMNSLKPEDTAVYDCYARGIGRSTKWSSRDYWGQGTQVTVSS”, the “polyreactivity (PSR sort gate)” value is listed as “high polyreactivity”.
The entry for “QVQLVESGGGLVQAGGSLRLSCAASGRIFYYYMAWYRHAPGKERELVAAITRGGGTYADSVKGRFTISRDNAKNTVYLQMNSLKPEDTAVYYCAAYPRGARRLDYWGQGTQVTVSS” is “high polyreactivity”; for “QVQLVESGGGLVQAGGSLRLSCAASGRIFYYYTMGWYRQAPGKERELVARINSSGSTNLRRLCEGALHNFTRQCEEYRLFTDEQPETGRYRVYYCNADTKRSSREYDYWGQGTQVTVSS” it is “low polyreactivity”; for “QVQLVESGGGLVQAGGSLRLSCAASGRIGVYAMGWYRQAPGKERELVAAIRRSGGNTYYADSVKGRFTISRDNAKNTVYLQMNSLKPEDTAVYYCAAGRPYRFYPRYDYWGQGTQVTVSS” it is “high polyreactivity”.
“QVQLVESGGGLVQAGGSLRLSCAASGRIIADNAMGWYRQAPGKERELVATISSGGSTSYADSVKGRFTISRDNAKNTVYLQMNSLKPDDTAVYYCATPYTGPSRPYDYWGQGTQVTVSS”: the “polyreactivity (PSR sort gate)” value is “low polyreactivity”.
Turning to “QVQLVESGGGLVQAGGSLRLSCAASGRIIAWNDMGWYRQAPGKERELVAAIRWSSGTTYYADSVKGRFTISRDNAKNTVYLQINSLKPEDTAVYYCAAGGHARTWYAYYYWGQGTQVTVSS”, the “polyreactivity (PSR sort gate)” value is recorded as “low polyreactivity”.
Turning to “QVQLVESGGGLVQAGGSLRLSCAASGRIIDIYAMGWYRQAPGKERELVAAITSGGSTYYADSVKGRFTISRDNAKNTVYLQMNSLKPEDTAVYYCAARLFADYWGQGTQVTVSS”, the “polyreactivity (PSR sort gate)” value is on record as “low polyreactivity”.
The entry for “QVQLVESGGGLVQAGGSLRLSCAASGRIIFTNAMGWYRQARGKERELVASISRGGVRTYYADSVKGRFTISRDNAKNTVYLQMNSLKPEDTAVYYCDKGYHLVLPPLPQYDYWGQGTQVTVSS” is “low polyreactivity”.

Values taken from the nanobody polyreactivity screen of Harvey et al. (2022).
